Assay results from US20070190574A1, “Diagnostic method for identifying carriers of the Marburg I variant of factor VII-activating protease (FSAP) on the basis of differential modulation of FSAP activity” (DADE BEHRING MARBURG GmbH, priority 2005, published 2007).
Several values for one entry are separate records, joined by “and”; a condition that tells them apart may be missing. Equal entries are not always repeated.

Tests used:
Type in all cases: biochemical
FSAP MR I variant [1] = target: T1, FSAP MR I variant (Homo sapiens, UniProt Q14520, G534E); assay: Amidolytic activity of FSAP for S-2288 with and without aprotinin, MR I carrier plasma samples
T1 construct: found for a plasma sample of a heterozygous carrier of the MR I polymorphism; from tissue
T1 sequence (Q14520 314-560 G534E limits assumed): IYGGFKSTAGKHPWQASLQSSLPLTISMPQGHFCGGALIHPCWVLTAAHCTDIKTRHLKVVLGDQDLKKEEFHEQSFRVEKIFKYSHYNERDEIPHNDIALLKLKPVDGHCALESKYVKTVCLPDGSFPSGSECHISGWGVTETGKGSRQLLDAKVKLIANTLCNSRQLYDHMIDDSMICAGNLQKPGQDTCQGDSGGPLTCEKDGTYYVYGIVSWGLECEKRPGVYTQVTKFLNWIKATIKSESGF
T1 sequence (Q14520 24-313 partner limits assumed): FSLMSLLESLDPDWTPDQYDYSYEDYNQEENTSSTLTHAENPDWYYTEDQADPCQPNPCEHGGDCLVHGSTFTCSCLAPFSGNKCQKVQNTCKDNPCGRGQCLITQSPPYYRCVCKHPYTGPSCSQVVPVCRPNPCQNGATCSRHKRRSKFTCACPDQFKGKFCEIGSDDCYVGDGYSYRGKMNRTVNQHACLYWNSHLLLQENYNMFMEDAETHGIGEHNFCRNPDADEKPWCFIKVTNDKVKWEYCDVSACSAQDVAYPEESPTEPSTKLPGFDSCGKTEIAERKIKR
Experimental: (§1) The microtiter plates used were the same as described in example 1. In each case 100 μl of a plasma sample to be determined were pipetted in a dilution of 1:50 in sample buffer (see example 1) into the wells. After incubation at +37° C. for one hour, unbound constituents were removed by washing three times with 50 mM sodium phosphate-buffered isotonic NaCl solution, 0.02% Tweene® 20, pH 6.5.
(§2) In order to reduce evaporation effects during the relatively long incubation time in the MTP, a layer of mineral oil was put on top.
(§3) The change in absorption (OD) of the reaction mixtures was followed at a wavelength of 405 nm, and the maximum reaction rate vmax was determined (see example 1). Differentiation between carriers and non-carriers of the FSAP MR I variant is possible through the formation of a ratio (quotient) between vmax of the reaction kinetics of a sample without added aprotinin (vmax0) and with added aprotinin (vmax aprotinin). The following applies thereto: • FSAP wild type vmax0/FSAP wild type vmax aprotinin>FSAP MR I vmax0/FSAP MR I vmax aprotinin.

FSAP MR I variant [2] = target: T1, FSAP MR I variant; assay: Change in amidolytic activity of FSAP (S-2288) on addition of activity modulator during the reaction, MR I sample; conditions: vmax before/after modulator added at about 60 min; aprotinin 2.95 KIU/ml, MAb about 60 μg/ml; six measurements; negative control 0.81
Experimental: as §1, with “1:15” for “1:50”, “as in example 1.” for “with 50 mM sodium phosphate-buffered isotonic NaCl solution, 0.02% Tweene® 20, pH 6.5.”
To determine the amidolytic activity of FSAP, at time t0 in each case 80 μl of the chromogenic substrate S-2288 (1.5 mmol/L; Chromogenix Instrumentation Laboratory S.p.A., Milano, Italy) in a 50:50 mixture of test buffer I and test buffer II (see example 1for test buffer I and 11) were put into the MTP wells and incubated at +37° C. in a photometer. After about 60 minutes, aprotinin was added in a final concentration of 2.95 KIU/ml or the respective monoclonal antibody (MAb) was added in a final concentration of about 60 μg/ml per reaction mixture. The change in absorption of the reaction mixtures was followed at a wavelength of 405 nm, and the maximum reaction rate vmax was determined (see example 1). […]
Three independent measurements were carried out on the sample of the non-carrier of the FSAP MR I variant (wild-type sample; WT). […] The averages (Av.) of vmax/vmax activity modulator (vmax/vmaxA) and the standard deviations relating to the population (SD) were calculated. […]

FSAP wild type [3] = target: T2, FSAP wild type (Homo sapiens, UniProt Q14520); assay: Prourokinase-activating activity of FSAP with and without aprotinin (S-2444), wild-type plasma samples
T2 construct: found for a plasma sample of a non-carrier (wild type); from tissue
T2 sequence (Q14520 24-560): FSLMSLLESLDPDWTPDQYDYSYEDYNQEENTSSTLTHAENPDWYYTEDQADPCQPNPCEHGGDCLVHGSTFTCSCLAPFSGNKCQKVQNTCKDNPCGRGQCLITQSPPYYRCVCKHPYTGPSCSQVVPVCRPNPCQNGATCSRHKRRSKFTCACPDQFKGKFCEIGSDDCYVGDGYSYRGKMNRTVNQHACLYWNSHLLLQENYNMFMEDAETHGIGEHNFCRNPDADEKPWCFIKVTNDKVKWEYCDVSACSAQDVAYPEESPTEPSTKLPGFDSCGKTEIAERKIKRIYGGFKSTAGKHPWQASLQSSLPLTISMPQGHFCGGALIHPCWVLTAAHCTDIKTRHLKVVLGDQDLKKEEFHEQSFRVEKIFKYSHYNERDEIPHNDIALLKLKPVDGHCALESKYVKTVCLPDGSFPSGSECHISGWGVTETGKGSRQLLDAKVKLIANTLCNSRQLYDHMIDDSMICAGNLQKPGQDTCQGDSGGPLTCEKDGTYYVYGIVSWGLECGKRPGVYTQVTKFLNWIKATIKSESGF
Experimental: (§4) An anti-FSAP antibody produced via the hybridoma cell line DSM ACC2453 was used as solid phase-associated binding partner having affinity for FSAP. Polystyrene microtiter plates (MTPs) were used as solid phase for carrying out the heterogeneous detection method. Anti-FSAP antibodies in 50 mM NaHCO3, pH 8.2, were associated onto the polystyrene solid phase with a coating volume of 120 μl per well of the MTP and a coating concentration of 20 μg of antibody per ml at room temperature overnight. Unbound antibodies were removed by washing three times with 50 mM sodium phosphate-buffered isotonic NaCl solution, 0.02% Tween® 20, pH 6.5.
(§5) In each case 100 μl of a plasma sample to be determined were pipetted in a dilution of 1:80 in sample buffer (20 mM sodium citrate, pH 6.0, with 150 mM NaCl, 100 mM L-arginine monohydrochloride, 1% bovine serum albumin, 0.1% Tweene® 80, 100 I.U. of heparin/ml) into the wells. After incubation at +37° C. for one hour, unbound constituents were removed by washing three times with 50 mM sodium phosphate-buffered isotonic NaCl solution, 0.02% Tweene® 20, pH 6.5.
as §3, with “nm. A differentiation” for “nm, and the maximum reaction rate vmax was determined (see example 1). Differentiation”, “quotient” for “ratio (quotient)”
(§6) The maximum slope of the time-conversion plots was determined by linear regression in a sufficiently linear region of the time-conversion plot and afforded the maximum reaction rate vmax of a reaction in mOD/min.

FSAP MR I variant [4] = target: T1, FSAP MR I variant; assay: Prourokinase-activating activity of FSAP with and without aprotinin (S-2444), MR I carrier plasma samples
Experimental: as §4, §5
as §3, with “nm. A differentiation” for “nm, and the maximum reaction rate vmax was determined (see example 1). Differentiation”, “quotient” for “ratio (quotient)”
as §6

FSAP wild type [5] = target: T2, FSAP wild type; assay: Change in amidolytic activity of FSAP (S-2288) on addition of activity modulator during the reaction, wild-type sample
Experimental: as §1, with “1:15” for “1:50”, “as in example 1.” for “with 50 mM sodium phosphate-buffered isotonic NaCl solution, 0.02% Tweene® 20, pH 6.5.”
To determine the amidolytic activity of FSAP, at time t0 in each case 80 μl of the chromogenic substrate S-2288 (1.5 mmol/L; Chromogenix Instrumentation Laboratory S.p.A., Milano, Italy) in a 50:50 mixture of test buffer I and test buffer II (see example 1for test buffer I and 11) were put into the MTP wells and incubated at +37° C. in a photometer. After about 60 minutes, aprotinin was added in a final concentration of 2.95 KIU/ml or the respective monoclonal antibody (MAb) was added in a final concentration of about 60 μg/ml per reaction mixture. The change in absorption of the reaction mixtures was followed at a wavelength of 405 nm, and the maximum reaction rate vmax was determined (see example 1). In order to reduce evaporation effects during the relatively long incubation time, a layer of mineral oil was put on top.
Differentiation between carriers and non-carriers of the FSAP MR I variant is possible through forming a ratio, for example the quotient of the maximum reaction rate before addition of the differential activity modulator (vmax) and the maximum reaction rate after addition of the differential activity modulator (vmax aprotinin).
Three independent measurements were carried out on the sample of the non-carrier of the FSAP MR I variant (wild-type sample; WT). Six independent measurements were carried out on the sample of the heterozygous carrier of the FSAP MR I variant (MR I). The averages (Av.) of vmax/vmax activity modulator (vmax/vmaxA) and the standard deviations relating to the population (SD) were calculated. The negative control, i.e. addition of a corresponding volume of test buffer I and test buffer II in the ratio 50:50 without activity modulator afforded an Av. vmax/vmaxA of 0.81 +/− 0.12. […]

FSAP wild type [6] = target: T2, FSAP wild type; assay: Amidolytic activity of FSAP for S-2288 with and without aprotinin, wild-type plasma samples
Experimental: as §1, §2, §3

[7] = average over MR I samples, 0.055 KIU/ml aprotinin
[8] = without vs 0.055 KIU/ml aprotinin, MR I samples, one value per sample
[9] = average over WT samples, 0.055 KIU/ml aprotinin
[10] = without vs 0.055 KIU/ml aprotinin, WT samples, one value per sample

For aprotinin, the vmax aprotinin (FSAP MR I variant [1]; 0.055 KIU/ml aprotinin, MR I plasma samples 1:50, S-2288, one value per sample) was 1.22 mOD/min and 0.94 mOD/min and 1.87 mOD/min, the “Av. vmax0/vmax aprotinin” value (FSAP MR I variant [1]; [7]) was 1.04 and the “Av. vmax0 − vmax aprotinin” value (FSAP MR I variant [1]; [7]) was 0.07 mOD/min. The vmax0/vmax aprotinin (FSAP MR I variant [1]; [8]) was 1.02 and 1.03 and 1.08, the “MRI Av. vmax/vmax A” value (FSAP MR I variant [2]) was 12.36 and the vmax aprotinin (FSAP wild type [3]; 0.055 KIU/ml aprotinin, WT plasma samples 1:80, S-2444, one value per sample) was 13.82 mOD/min and 12.09 mOD/min and 8.81 mOD/min and 11.84 mOD/min. The “inhibition of prourokinase-activating activity of FSAP, non-carrier sample versus heterozygous carrier sample” value (FSAP wild type [3]; FIGS. 1 and 2, 0.036 and 0.055 KIU/ml final aprotinin concentration) was “substantially more strongly”, the “Av. vmax0/vmax aprotinin” value (FSAP wild type [3]; [9]) was 2.01 and the “Av. vmax0 − vmax aprotinin” value (FSAP wild type [3]; [9]) was 11.37 mOD/min. The vmax0/vmax aprotinin (FSAP wild type [3]; [10]) was 1.90 and 1.78 and 2.41 and 1.95, the “vmax0 − vmax aprotinin” value (FSAP wild type [3]; [10]) was 12.42 mOD/min and 9.38 mOD/min and 12.44 mOD/min and 11.23 mOD/min and the vmax aprotinin (FSAP MR I variant [4]; 0.055 KIU/ml aprotinin, MR I plasma samples 1:80, S-2444, one value per sample) was 2.00 mOD/min and 1.84 mOD/min and 2.45 mOD/min. For the same substance, the “Av. vmax0/vmax aprotinin” value (FSAP MR I variant [4]; [7]) was 1.43, the “Av. vmax0 − vmax aprotinin” value (FSAP MR I variant [4]; [7]) was 0.90 mOD/min and the vmax0/vmax aprotinin (FSAP MR I variant [4]; [8]) was 1.52 and 1.35 and 1.41. For the same substance, the “vmax0 − vmax aprotinin” value (FSAP MR I variant [4]; [8]) was 1.04 mOD/min and 0.64 mOD/min and 1.01 mOD/min, the “inhibition of FSAP amidolytic activity after addition of aprotinin in a single reaction mixture, non-carrier versus heterozygous carrier” value (FSAP wild type [5]; FIG. 5, aprotinin added at a reaction time of about one hour) was “inhibited more strongly in the sample of the non-carrier” and the “WT/MRI quotient of Av. vmax/vmax A” value (FSAP wild type [5]; WT sample versus heterozygous MR I sample, aprotinin 2.95 KIU/ml, MAb about 60 μg/ml) was 1.35. For the same substance, the “WT Av. vmax/vmax A” value (FSAP wild type [5]; vmax before/after modulator added at about 60 min, aprotinin 2.95 KIU/ml, MAb about 60 μg/ml, three measurements, negative control 0.81) was 16.72, the vmax aprotinin (FSAP wild type [6]; 0.055 KIU/ml aprotinin, WT plasma samples 1:50, S-2288, one value per sample) was 6.90 mOD/min and 9.57 mOD/min and 7.52 mOD/min and the “inhibition of amidolytic activity of FSAP, non-carrier sample versus heterozygous carrier sample” value (FSAP wild type [6]; FIGS. 3 and 4, 0.036 and 0.055 KIU/ml final aprotinin concentration) was “considerably more strongly”. The “Av. vmax0/vmax aprotinin” value (FSAP wild type [6]; [9]) was 1.48, the “Av. vmax0 − vmax aprotinin” value (FSAP wild type [6]; [9]) was 3.81 mOD/min and the vmax0/vmax aprotinin (FSAP wild type [6]; [10]) was 1.45 and 1.47 and 1.51. The “vmax0 − vmax aprotinin” value (FSAP wild type [6]; [10]) was 3.09 mOD/min and 4.49 mOD/min and 3.86 mOD/min.
